In the DeepSol protein solubility set:

assay: soluble on expression in E. coli; label from the status in PepcDB or PDB records

Sequence | soluble on expression in E. coli
MNKDNSPSESLVNSSASEDKTVKTSMSANNPSINDSSLPERLPAMCGCDSQNREESANSGVQLSDHANESLSKQADDVIYEGGLEDKDSVFRAIIEDDDACEVLDDGIDNCEVEIPVAIECHLCNEMMNLCLRRTRYRGQAREYPAYRCNRKGCQTFRSIRKVFGNCMSDVDNSGDATTRTMIYHPPHKVRKTSPGEFSDDDSKEFVVQRVYIPKIDNRNKDQSVKSLSVTDRMRKANQDRAIVFSEFADQLRRDIVANKRVRIKKHVEEDQQGTLFYISKELNPQEVIELQDVIIKTLISMRKIPPPMTMDDLPLFANCPYSKKAVDAGEFDMSETEERPRPKLPKTIYQNTRTHSDSLTERSRHFTYDELKHSMEANAEGPSTCRIGISRSERNSESLQWIGLKTYEDSTDGFAKSVNSEGERQQGINGQIDDEVFEDESRFKPVASMQDVMRTLSTPSTLRPPVSPLMKSFSSMDSSNFKNPINAHPPMFFSDPHFLINNNQFNSPTPFYALNSYFPSFPMDSSQVYQNATDEHFTPSGASEVVCTEQTPGHHFTYIHPDSGVRLTDPSAFLTSFVPSPITKVPPINFNDETSRSRSASAPSTSVYNTGEFERSHKKYENEEDEKLMDNQNFSDEQPKE | not soluble
MVSMLLVGRIGKSVGLNGGLRLHLESDFPECLKKGVKVSVAPLNAFSCVSSFKEYIIHSYEHAKNLLFLETIQTPEKAKELTNLGLFMSEAESKKLCVLKEGEFFYCDLVGLSVVEENEILGKVIEIQRISQTDYFLVETTLNLVEKGLAKIFLIPYRDFYIQEILLQDKKITTHNAKTLLENSLEHHHHHH | soluble
MGSDKIHHHHHHAEQKEEGISVLRYDKLLSEYVRSNSFSAMQKLTMDYRQPTKILIEDVLSIGTVKDDTISQRLQKFYSDSTLLRLLSDVEAKYPNLDEVEKGLTKGFRKLKKEVPDTKIPFIYSQISAFNESIILVDTLLGISLDKYMGEDYPLYKRFYYDYQCTSMRPERIVPDCFAFYLLSRYEMNYHEGTCLVDLMMHSGKINYVVQHLLGYDDIGQAMGYSDQENEWCRKNEKDIWEYICANDHLHARDPMVIRYYMKPAPTVDMLGGQAPALIGSWVGARIIASYMKKHKDLKIKDLLELTDYQSMFEESGYLKL | not soluble
MSLDPSKVTSMSAVEFTPLPTCLQHRSCDACMSSDLTFNCSWCHVLQRCSSGFDRYRQEWMDYGCAQEAEGRMCEDFQDEGHHHHHH | not soluble
MGHHHHHHSHMQSYLPNDTVESGIHPVYFCSTHYIEMLLKAELPLVFSAFHMSGFAPSQICLQWITQCFWNYLDWIEICHYIATCVFLGPDYQVYICIAVFKHLQQDILQHTQTQDLQVFLKEEALHGFRVSDYFEYMEILEQNYRTVLLRDMRNIRLQST | not soluble
MGSDKIHHHHHHMDAVQLKSFVAVAHEGNLTQAAKRLFLSQPAVSAQIKALEEYVGTPLFRRTGKGMVLTRAGEILLPEAESLLQYKHKLEHFAKTLAGDYSEETSLGIIHPIDSAKLVALTDNIGQTAPKTRLHIQYGMSGEILSRIQHKTLHGGFILGNAAQRGIRSVFLQNLTYALICPQSQYPHLTRSLPQSLQECVWIEMSGVSGSRKHLHQFWRSNRLSPKKQILCDYPQTIIDLVAGGIGVAMVPGNKAEAAAKEGAGVAIIESCRHSMPLNFIYAEEYEDNPHVSLLLECIEKVWGVQAVQPPVVSDN | not soluble
GPGSMADAYRERALPTLSVLERLRCLRREHVPYASHYCEENAYKLVEALYRDFSLPDHAVFAVFISNDCKSTPVWKQRLGNGRCPLMWDYHVITLVNVGAGDEGGMWAFDQDTTLPFPCEGLRYIEESFHPEMQLDDKYRQRFRVVPGRDYLEYFSSDRSHMKDFDAAQPPWPLIRGCRAPSDMRLGLYVDVHQSSSGEDVKKEQGCGKILSIAELISFVSP | soluble
MAVSLSKGGNVSLTKEAPGLTAVTVGLGWDVRTTTGTDFDLDASAIAVNPTGKVYSDAHFVFFNNKQTPDQTIVHTGDNRTGEGAGDDEAINVNLAGLPADVDKIVFPVSIYDAENRSQNFGQVRNAYIRIVNQAGGAEIARYDLSEDAATETAMVFGELYRNGAEWKFRAVGQGYASGLVGIAQDFGVNV | not soluble
AQRDVLAVLPQLNAVQNLAGDAPSWAEGYGLYQGDMLGEESASVYRKLLIAVFAPRLVTRIEEQLRSGGSSDFLYEGLKAYLMLGSPDHYDADFIKAWISLDWERNLPRDLSPEQRQALHAHLDALLERRPPSARLDQDLVEDLRRQLQQLPVAQRVYDRVKRQRLPKDVPDFRISDAAGRDAPLVFARKSGKPLTDPLSGFFTYRGYREVFLTASLSQAGTIAEEQWVLGRDLNDAGDAANLALDVRRLYFQDYLRQWDDLLADLTVVPITNVTQAADVLRILSGPTSPFRKLLEAVARETDLQKGDRLVAAQVKKAADGTVDKLKQRLGSLVGQEEEG | not soluble
MSSNYVMATKEGQMLLTQGKPMLDKDTGLLSYTDEQGNQKQINSDQVSQIVQRLEHHHHHH | not soluble
LSSPADSYNEGVKLQPQEISPPPTANLDRSNDKVYENVTGLVKAVIEMSSKIQPAPPEEYVPMVKEVGLALRTLLATVDETIPLLPASTHREIEMAQKLLNSDLGELINKMKLAQQYVMTSLQQEYKKQMLTAAHALAVDAKNLLDVIDQARLKMLGQTRPH | soluble
MPMNNFLDEFNLFDSIITMMKNDPCCVEDYEPIVENLNRIFQRTFNDEEHRKSMANSQLFWERLRDTLEAMLLPASLNENSSIPYTRTVRGLILMMRNLAAENQEIPQKLLLQNLVIRGFLHATSEYVVDTPLIKHLYIACLTCLFNIQQNYSTVDMTTFPALLQFLQYPYGIKLEDGEEEEHFWLPYLFLFKTYLNNDEFSNEFFRDNDTPQKDYYCVRDRIFFDIVTAKFIQDQENSFLIEKGRNYLDDSKLEITSIDLSVLECISKSLTTASFGKYLNGLEERQPGKFTTLLQILQLVVTSKEDWNTYELTAIMSWCYPILQRLACKDIPAFFNKSCNDYAPSVAIQLHSTLLSCLDIISDLCKFNHVRKFLISYDSVKILVSLLDTFQKNLLRINFLKGNGDTVNEIKITDHEGNKIEDRLLIFNRVNTNESFIRADNFPHCKLVIIEILASLVYAHPEIQDQIRELGGLALILSNCVIDDNDPFIKERSIVCLKFLLKNNAKNQEYVKKMEAQDVVQDDALSKAGFEISVEKGGKVRLVSKEEDPGNENSEIISIDED | not soluble
MGSDKIHHHHHHMKGNAPVLAAVDISKGFRVYRAPHQRMLQAIWGERKKFYSEFWALRNVSFQVFPGEVVGVIGCNGSGKSTLLQILAGTLRPTSGQVVRPERVAALLELGAGFNMEYTGRENIIFNAMLLGLGEQEISERLDEIIQFADIGEFIDRPVRTYSSGMFVRLAFSIAAYVDADVLIVDEALAVGDAAFQFKCLNRLEELLLKGITILLVSHDIQLIKSYCSRAIYLSKGRVIFDGDCETATELYLRDSIETQRAEVRSGSLIASGEHGNSVIAYGNGQGRFLSIRMGVLDEARDYFDSGERVWVEVLVQFDLPVPEHPKITLTIRDQRGYNLYGINNLLLGKALNVEPDGRLRTRISFDCDLQAGEYALTFRLENSLSESVCELMDKKVNAAIFRVFNSPKCFDAVVNLHGAFEPVPFCCETRATQ | not soluble
MKSCRSCKENPEVQRKRAEKPWRRAPKAKSEVEKHGIGPPDSDSGEEISFPWYNVTGKMLVVGMHVEIKRSDGRIHGAVIAEVKSNGRFMVEWYEKGETKGKESSLEELLTLNPSLQAPKPTPPPQPPQKTLQASTAVNRQNGIHAQSMILDDEDTFLLDHINMIPAKGASANKRPTGAFTQHVPVRMAPPSEKPLPTRRAPSPKEDAAPAPKSTRTTAAFKPDLDSTAITVPKHTARRTVVVAPAPAPVPAPPIANMTSQRAPSPVARVPSPKNVPRSYPQQDVQPSNGNFAFAEMIRNYRAQIDYRPLSMFDGVNENRISVCVRKRPLNKKELTKAEVDVITIPSRDITILHQPQTRVDLTKYLDNQKFRFDYSFDEYANNELVYRFTAAPLVKTVFDNGTATCFAYGQTGSGKTHTMGGDFSGKKQNASMGIYALTARDVFRMLEQPQYRRKDLSVHCAFFEIYGTKTYDLLNDKAELRVLEDKMQKVQVVGLKEEQAHNEQDVLELINKGTLVRTAGTTSANANSSRSHAIFQIILRQGKKVWGKFSLIDLAGNERGQDTRECDRDTRKEGANINTSLLALKECIRGMARNSSHVPFRQSKLTMVLRDSFIGEKSRTVMISMISPGISSSDHTLNTLRYADRVKEMGTDGSGEATPIRDEELFLPPSADKSDEEYDEMVEKQEHRRVAVDHVRNLKDMSEKIIRETTIVLSNEPSAAQKAECLAKLDQLAQIVSNTRVAVENV | soluble
MIIIMAGGKSSRMGREKPVLKIAGKEMLLWVYEQAEAVGEVLVALSRHTPRTRELCLREGIEFVDTPGRGYVKDVQWLLREFGPFISLSSDIPFVKSSDIYSLLKEFDGKVSLTGVLPLEVVPKDLTPYSYMGYAIVGINGVAKEGEKFFVFSNPLLALNVNTPRELELAKRVAEIIRVRGIR | soluble
MGSDKIHHHHHHMNHNLTTLHPYPFAKMATLLADSTPAHSYDEIKLGIGEPKHAPPAFVLDVLRENLDKISHYPTTNGLFELRQTIAHWLEKRFFLNHVNPNTQVLPVMGTREAIFSIVQAVINHQTETISQTATLNQSPVVVMPNPFYQIYEGAAILAQATPYFIPCTADNGFKGDFRSVPKDVWMRTQLLFVCSPNNPTGSVMTMDDWEQLLRLSDQYGFIIASDECYSELYFDKAPIGLLQACAALGRHDFKNCLVFHSLSKRSNLPGLRSGFVAGDATILDSYLQYRTYQGCAMPIPHQLASIAAWEDEKHVAHNRALYQEKFALWMSELGALLDLRMPEAGFYFWIKAPEQFDGDDELFVKALYEHANIHALAGRYLSREVNGKNPGQGYVRIALVASVEESREAIRRIRQLLGA | not soluble
EDLPTARVGVDYTSDSQVGGTLDLGRRFGDNNQFGARVNLVHREGEGAIDNDKRRTTLASLGLDYRGDRFRSSLDFGYQKKTFHGGTMGVNISGVDFIPALPDNSKNYSQKWGYSDIESEFGMAKAEYDLTDSWTVYSALGGQHSHEIGTYSAPKLLNKNGDATVGRLDTNRIIDAISGMGGVRGDFNTGAISHKVNLGYAAQVHTDATAWRMSARNPTTNIYDNHDVAMPDNAYFGGNYHDPLITSRSRTQGWLLSDTLGFFNDKVLFTAAARHQKVVVRNYSNATGLEDTSSRYTQSRWMPTFGLVYKPWEQLSLYANHTEALQPGSVAPTTAANAGQSTGIAHSKQDEVGVKIDYGTIGGSLALFEIKKPNAISDTAGNYGLDGEQRNRGVEMNVFGEPMLGLRLNASTVWLDAKQTKTAEGATDGKDAIGVANFYAVLGAEYDIKPVEGLTATARVNHSGSQYADAANTKKLDSYTTLDLGLRYRMRLNADQNEMIWRVGVTNVTNEKYWSGIDDTGTYLFEGDPRTVRVSMSYDF | not soluble
MHAFTTERLLIRPLISEDEHFYCYQYTDKKMMRIVGEPLTQEQASAAFHRALKANNLEQDTVRTWAIVDKAANDIIGTQALSWLATRQTTKPSSSPIEQVEIGIMLATRANGKLLPEEAVSAIMEYGFKQLNIGRINAFYANKNRATQRILKKIGYIFEPCLQDNTTDNGYQYFEQHQWSGVIITQLFPEEIEIKEPTVND | not soluble
MITQGPNLIGIHANEKENIETKKFVNWFLNQSITDWNSNNQQKNSDQTTKTAAEYFTDQASYILPLKEKFNKSSDLELKGSSSSSNLTTSSASASLLISNNSSTASSPAPKKTNNNSNTFTAKALELFQQAANNEIIPFSDPSDFRNGTFRNNISSSFNAAVNSK | soluble
